Experimental data reported in the supplement of paper PMC10567573.
± gives the standard deviation.

Assay: protein stability index of a GFP-peptide fusion (GPS, HEK-293T) (PSI 1-6); higher = more stable
[1] = treatment: DMSO, c terminus: a fixed tail appended
[2] = treatment: MLN4924 1 uM, 8 h, c terminus: a fixed tail appended
[3] = treatment: DMSO, c terminus: native
[4] = treatment: MLN4924 1 uM, 8 h, c terminus: native
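Further: 24-mer peptide tiles fused after GFP, lentivirally expressed, FACS-sorted into six equal bins by GFP/DsRed ratio, decoded by Illumina sequencing, PSI is the read-weighted mean bin number.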

Sequence	protein stability index [1]	protein stability index [2]	protein stability index [3]	protein stability index [4]
IGSTSESKDWEEVVVESMEQDRIP [MIA2]	5.08 ± 0.32	5.11 ± 0.26	–	–
IHTGKKPHVCSLCGKAFYKKYRLT [ZNF649]	2.67 ± 0.42	2.92 ± 0.62	–	–
IICYSITDRRSFHEVREFKQLIYR [RIT1]	2.41 ± 0.25	2.53 ± 0.46	–	–
IILTATDGLFDNMPDYMILQELKK [PPTC7]	2.31 ± 0.32	2.22 ± 0.19	–	–
IIRLVRVFRIFKLSRHSKGLQILG [KCNA4]	2.25 ± 0.53	2.3 ± 0.4	–	–
ILVSVAAGVSLSTLEELLPPNTRV [PYCR3]	2.77 ± 0.49	2.62 ± 0.54	–	–
IMAFFLCLGLALGAVFSFLFRAIV [SLC29A1]	1.94 ± 0.14	2.19 ± 0.21	–	–
INPYSNRESRILFSTWNLDHIIEK [DFFB]	2.54 ± 0.1	2.61 ± 0.099	–	–
IPKCSKIVIDFDSINSRPSQKLQ [DCTD]	–	–	3.14 ± 0.31	3.38 ± 0.32
IPSWQIRTVKLIRYVSNWDFFIVG [PKD2L1]	2.79 ± 0.52	2.93 ± 0.7	–	–
IQIAFEEVPQLPPRASISHVTCVD [C2CD2L]	2.39 ± 0.16	2.46 ± 0.23	–	–
IQLFEELQELLTHDTKDQSPSRAP [HMOX1]	3.3 ± 0.29	3.61 ± 0.45	–	–
IRERPAAIPIEIKSIDDTSNFDDF [STK38L]	4.31 ± 0.3	4.92 ± 0.19	–	–
ISYSSMLGAVAGLALGPILRLYKH [MFSD9]	2.58 ± 0.5	2.13 ± 0.25	–	–
ITEKIDVAFVDRADIKQYIGPPSA [TRIP13]	3.6 ± 0.15	3.54 ± 0.58	–	–
ITPTKKIELDRTIMPDGTIVTTVT [C2CD2L]	2.67 ± 0.25	2.79 ± 0.22	–	–
ITRVLYEVFIEWGISAKVFGATTN [ZBED1]	3.15 ± 0.88	3.04 ± 0.2	–	–
IVGFGLYGSIHGPTDYQVNIQIIE [BTBD1]	2.63 ± 0.4	2.6 ± 0.47	–	–
IVGYAFHFPHLLSPQIQRSAHRAL [TMEM175]	2.23 ± 0.24	2.54 ± 0.51	–	–
IVLDRALHIPMYFFLAILSCSEIC [OR10K2]	3.1 ± 0.18	3.19 ± 0.29	–	–
IVSTQITRPSGNNGNRRRRKLRKT [PHTF1]	4.35 ± 0.35	4.46 ± 0.23	–	–
IVTLRHVLAAKERRCGELKRKLGL [TPD52L3]	2.2 ± 0.11	2.18 ± 0.13	–	–

Sequence	protein stability index [1]	protein stability index [2]	protein stability index [3]	protein stability index [4]
IWKLNLQTFQWVKLPATMPEPVYF [KLHDC10]	2.82 ± 0.7	2.63 ± 0.33	–	–
IWLDNLHCTGNEATLAACTSNGWG [LOXL2]	2.18 ± 0.31	2.27 ± 0.3	–	–
IYAHRVILSACSPYFRAMFTGELA [KLHL20]	3.16 ± 0.56	2.9 ± 0.65	–	–
KAASLARNLAKRRRTYLGGAAGRS [RSPH3]	3.09 ± 0.34	3.56 ± 0.45	–	–
KAFSRSSGLFNHRGIHNIQKRYHC [ZSCAN9]	2.63 ± 0.39	2.45 ± 0.14	–	–
KAILKNISVLAFSVCFIFTITIGM [SLC29A1]	3.19 ± 0.29	2.96 ± 0.44	–	–
KAKPEPDILEEEKIYAYPSNITSE [TMEM192]	4.82 ± 0.2	4.83 ± 0.2	–	–
KALLYLPIAPEVEDPEENPYGPPP [RBBP5]	3.94 ± 0.31	4.07 ± 0.42	–	–
KASNSIISCFNNAPPAKLACPVCS [FAN1]	2.92 ± 0.15	3.1 ± 0.4	–	–
KDHSSSRPSSPRPQKASPNGSISS [BTBD10]	5.1 ± 0.42	4.71 ± 0.97	–	–
KDLQKEQKTLQVKCQHYKKKRTEQ [CEP70]	4.92 ± 0.31	4.87 ± 0.032	–	–
KEEGLPEEEPSHVTGREGFPTDAP [ZNF8]	5.45 ± 0.23	5.57 ± 0.3	–	–
KEEKQRRRCKPKKPTRRDASPESP [GNAS]	5.43 ± 0.18	5.47 ± 0.11	–	–
KEENEAESDVKHRTRDYKKTSLAP [PRIM1]	5.37 ± 0.23	5.37 ± 0.41	–	–
KEGDCAPEEKIWEELSVLEVFEGR [MAGEA6]	4.96 ± 0.16	4.87 ± 0.47	–	–
KELRDGGEQDTWAGEGAEALARNL [NFE2L1]	5.26 ± 0.25	5.36 ± 0.27	–	–
KFENLCKLMKEILDKKVEKVTISN [HSP90AB1]	–	2.75 ± 0.38	–	–
KGSFGKVCIVQKNDTKKMYAMKYM [STK32A]	2.49 ± 0.41	2.41 ± 0.23	–	–
KHYRFTHAEIIAWIRICRPGSIIG [CDC14A]	2.55 ± 0.15	2.83 ± 0.67	–	–
KIQLRLAGQKRKHSEGRVEVYYDG [LOXL2]	3.09 ± 0.33	3.88 ± 0.67	–	–
KISKQFVAPADVRRLLSYCKGRDH [ZSWIM9]	2.49 ± 0.32	2.81 ± 0.27	–	–
KKHAAYAWPFYKPVDAEALELHDY [BRD3]	2.97 ± 0.39	2.96 ± 0.38	–	–

Sequence	protein stability index [1]	protein stability index [2]	protein stability index [3]	protein stability index [4]
KLEKSIDSYYRLVIHRALDREQVS [PCDHGA10]	2.55 ± 1	2.48 ± 0.84	–	–
KLQYQLRNVRERIAKNLVEKGILT [GOLPH3L]	2.17 ± 0.16	2.28 ± 0.19	–	–
KLSETFLQIYQYVPKDQRLQAIKA [DLC1]	2.12 ± 0.38	2.28 ± 0.44	–	–
KNKPKKMGHIKPDLIDVDLIRGST [PHTF1]	3.8 ± 0.28	4.04 ± 0.2	–	–
KPLLGSAVLGLLLVLAAVVAWCYY [MYORG]	2.11 ± 0.4	2.25 ± 0.24	–	–
KQIVSAVAHCHQSAIVLGDLKLRK [TRIB1]	2.77 ± 0.18	2.72 ± 0.27	–	–
KQPRKKRGRYRQYNSEILEEAISV [LCOR]	3.92 ± 0.16	3.98 ± 0.13	–	–
KRGPSSRSGGPPPKKSAPSAVARS [RBMY1A1]	4.47 ± 0.12	4.78 ± 0.39	–	–
KRIKVPDYKDRSVFGVPLTVNVQR [DLC1]	3.02 ± 0.42	3.09 ± 0.35	–	–
KRYESHPVCADLQAKILQCYRENT [CHCHD3]	3.18 ± 0.23	3.55 ± 0.26	–	–
KSLDNMPNDEHWKALSRKSTSFRV [FBXO33]	3.4 ± 0.11	3.56 ± 0.21	–	–
KTQIVCKHFLEAIENNKYGWFWVC [ZC3H15]	2.62 ± 0.52	3.09 ± 0.54	–	–
KTSVEKANAQIQILTRSWEEVSTL [CD207]	3.48 ± 0.14	3.77 ± 0.26	–	–
KVLRRWVDEEWPKRERGDPSRHF [EDARADD]	–	–	3.21 ± 0.43	3.42 ± 0.2
KVMIFKSSYSLSDMVSNIELPTRI [MIA2]	1.88 ± 0.56	2.17 ± 0.12	–	–
KVRQLERDNAELENLIRERSQQQE [KRT33B]	5.11 ± 0.3	5.13 ± 0.28	–	–
KVVECLDHARGKSQVALKIIRNVG [CLK3]	2.24 ± 0.21	2.22 ± 0.36	–	–
KYFGCELGAQTQFDVKNDRYIVNG [EIF5]	3.08 ± 0.35	3.27 ± 0.26	–	–
KYIHRMMQIEFIKQGSMNFRFIPV [TRAF3IP2]	3.659 ± 0.005	2.21 ± 1.1	–	–
KYVVSGFDVDHGICIMDAENITTV [WDR88]	2.28 ± 0.32	2.25 ± 0.25	–	–
LAEAKYYLVQGLVEECQAALQNKD [KCTD10]	3.24 ± 0.17	3.38 ± 0.29	–	–
